Patent US20240317862A1 (AMPSOURCE BIOPHARMA SHANGHAI, published 2024)

T1: human B7-H3 on tumor cells (Hs578T, MDA-MB-436, MDA-MB-468, MDA-MB-231, MDA-MB-453, HT-29) (human, UniProt Q5ZPR3 29-534)
T1 construct: whole, on cells; also called target cells
T1 sequence (looked up): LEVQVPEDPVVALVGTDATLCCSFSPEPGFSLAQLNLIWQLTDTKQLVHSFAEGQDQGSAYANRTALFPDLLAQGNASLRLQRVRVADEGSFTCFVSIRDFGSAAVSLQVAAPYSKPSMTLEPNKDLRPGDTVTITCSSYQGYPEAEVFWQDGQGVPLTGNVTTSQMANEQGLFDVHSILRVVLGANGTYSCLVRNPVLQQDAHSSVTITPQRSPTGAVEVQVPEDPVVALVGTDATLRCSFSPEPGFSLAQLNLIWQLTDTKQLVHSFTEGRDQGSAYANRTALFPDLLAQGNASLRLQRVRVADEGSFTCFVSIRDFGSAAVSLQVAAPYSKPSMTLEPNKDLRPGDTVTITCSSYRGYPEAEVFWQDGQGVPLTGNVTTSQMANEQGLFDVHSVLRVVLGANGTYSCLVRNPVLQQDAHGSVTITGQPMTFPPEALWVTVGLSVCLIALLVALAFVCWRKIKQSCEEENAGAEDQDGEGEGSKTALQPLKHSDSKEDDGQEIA

T2: human B7-H3 (purchased from Acro Biosystems) (human, UniProt Q5ZPR3 29-461, limits assumed)
T2 construct: Bought protein coated on ELISA plates; also called human B7-H3 antigen; human B7-H3 molecules
T2 sequence (looked up): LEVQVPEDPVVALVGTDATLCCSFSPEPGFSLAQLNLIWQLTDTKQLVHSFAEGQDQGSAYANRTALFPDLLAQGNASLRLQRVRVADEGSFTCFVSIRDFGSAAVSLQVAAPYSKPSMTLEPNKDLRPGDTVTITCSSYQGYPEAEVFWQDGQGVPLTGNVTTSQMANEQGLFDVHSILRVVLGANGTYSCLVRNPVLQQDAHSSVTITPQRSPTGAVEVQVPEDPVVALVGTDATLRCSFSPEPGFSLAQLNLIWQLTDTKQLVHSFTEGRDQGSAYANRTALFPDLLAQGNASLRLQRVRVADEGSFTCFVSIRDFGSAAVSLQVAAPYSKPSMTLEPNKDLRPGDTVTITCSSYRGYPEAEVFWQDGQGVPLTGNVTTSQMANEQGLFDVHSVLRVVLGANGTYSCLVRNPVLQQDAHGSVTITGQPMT

T3: His-labeled human B7-H3 (human, UniProt Q5ZPR3 29-461)
T3 construct: Coupled to a Ni-NTA sensor in BLI; also called antigen B7-H3; not shown: His label
T3 sequence (looked up): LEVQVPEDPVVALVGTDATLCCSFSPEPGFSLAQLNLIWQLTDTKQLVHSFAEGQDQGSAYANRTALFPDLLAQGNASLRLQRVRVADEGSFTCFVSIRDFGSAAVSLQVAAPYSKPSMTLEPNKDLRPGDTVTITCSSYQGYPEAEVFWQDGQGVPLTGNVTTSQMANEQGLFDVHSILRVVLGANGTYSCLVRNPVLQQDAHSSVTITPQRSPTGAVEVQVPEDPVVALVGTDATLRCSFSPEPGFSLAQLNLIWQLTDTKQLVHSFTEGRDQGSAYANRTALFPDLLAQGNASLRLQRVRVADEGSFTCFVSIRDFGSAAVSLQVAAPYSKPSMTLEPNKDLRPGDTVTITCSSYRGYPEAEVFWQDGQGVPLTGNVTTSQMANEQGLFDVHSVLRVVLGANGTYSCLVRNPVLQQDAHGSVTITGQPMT

T4: murine B7-H3 protein (Sino Biological Inc. Beijing) (mouse, UniProt Q8VE98 29-244, limits assumed)
T4 construct: Bought protein coated on ELISA plates; also called mouse B7-H3 antigen; murine B7-H3 antigen
T4 sequence (looked up): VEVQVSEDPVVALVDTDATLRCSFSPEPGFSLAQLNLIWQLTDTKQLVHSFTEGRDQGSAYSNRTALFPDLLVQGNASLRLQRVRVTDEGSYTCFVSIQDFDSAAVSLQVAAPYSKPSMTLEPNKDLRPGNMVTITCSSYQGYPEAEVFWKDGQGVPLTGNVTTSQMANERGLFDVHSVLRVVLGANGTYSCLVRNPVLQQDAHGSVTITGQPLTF


Experiments:
[1] = target: T1, human B7-H3 on tumor cells (Hs578T, …); assay: flow cytometry, MFI titration on HT-29 cells
Description: (§1) The collected cells were resuspended with 1% PBSB to adjust the cell density to 2×10⁶ cells/ml, placed in 96-well plates 100 μL (2×10⁵ cells) per well, and blocked for 0.5 hours at 4° C. The blocked cells were centrifuged to discard the supernatant, and a series of diluted antibodies mAb152 and mAb272 were added to the cells. The cells were incubated for 1 hour at 4° C., then centrifuged to discard the supernatant, and washed three times with a PBS solution with 1% BSA (PBSB). Diluted AF64-labeled goat anti-human IgG antibodies (Jackson, Cat. No. 109-605-088) were added to the cells, and the cells were incubated for 1 hour at 4° C. in the dark. The obtained cells were centrifuged to discard the supernatant and then washed twice with 1% PBSB, and cells in each well were resuspended with 100 μL of 1% paraformaldehyde (PF). The signal intensity was detected by flow cytometry. The analysis was performed with the mean fluorescence intensity (MFI) as the Y-axis and the antibody concentration as the X-axis through the software GraphPad Prism 7 to calculate the Kd values for the binding of the murine monoclonal antibodies to the tumor cells.

[2] = target: T1, human B7-H3 on tumor cells (Hs578T, …); assay: flow cytometry, MFI titration on Hs578T cells
Description: as §1

[3] = target: T1, human B7-H3 on tumor cells (Hs578T, …); assay: flow cytometry, MFI titration on MDA-MB-231 cells
Description: as §1

[4] = target: T1, human B7-H3 on tumor cells (Hs578T, …); assay: flow cytometry, MFI titration on MDA-MB-436 cells
Description: as §1

[5] = target: T1, human B7-H3 on tumor cells (Hs578T, …); assay: flow cytometry, MFI titration on MDA-MB-453 cells
Description: as §1

[6] = target: T1, human B7-H3 on tumor cells (Hs578T, …); assay: flow cytometry, MFI titration on MDA-MB-468 cells
Description: as §1

[7] = target: T2, human B7-H3 (purchased from Acro …); assay: ELISA, plate coated with 0.1 µg/mL human B7-H3, HRP goat anti-mouse IgG detection
Description: Plates were coated with 100 μL of 0.1 μg/mL human B7-H3 (purchased from Acro Biosystems) at room temperature overnight. The coating solution was discarded, and the wells were blocked for 0.5 hours with skimmed milk dissolved in phosphate buffered saline (PBS) and washed with PBS containing 0.05% Tween-20 (PBST). The murine antibodies mAb152 and mAb272 against human B7-H3 to be tested were then diluted to appropriate concentrations, added to plates, 50 μL per well, and incubated at room temperature for 1 hour. The wells were washed with 0.05% PBST, and then 50 μL of HRP-labeled goat anti-mouse IgG polyclonal antibodies (purchased from Jackson Laboratory) was added to each well as the detection antibody and incubated at 37° C. for 1 hour. The cells were washed three times with 0.05% PBST, TMB was added to the plates, 100 μL/well, and color development was performed at room temperature for 5 min. 0.2 M H₂SO₄ was added, 50 μL/well, to stop the color development reaction. The light absorbance values at 450 nm/620 nm were measured by a microplate reader. A graph was drawn by software GraphPad Prism 7 with the absorbance as the Y-axis and the antibody concentration as the X-axis.

His-labeled human B7-H3 = target: T3, His-labeled human B7-H3; assay: BLI (ForteBio Octet), His-labeled human B7-H3 on Ni-NTA sensor, antibody 3.125-100 nM
Description: The binding affinity constants of the purified murine monoclonal antibodies to the antigen B7-H3 were determined by bio-layer interferometry (BLI) with a ForteBio Octet RED&QK system from PALL Corporation.

[8] = target: T4, murine B7-H3 protein (Sino Biological …); assay: ELISA, plate coated with 0.1 µg/mL murine B7-H3, HRP-labeled antibody, OD 450/620 nm
Description: (§2) The cross-reactivity of the anti-B7-H3 murine monoclonal antibodies with mouse and Cynomolgus monkey B7-H3 antigens was detected in this example.
(§3) Specific experimental procedures are as follows: The plates were coated with 100 μL of 0.1 μg/mL Cynomolgus monkey B7-H3 and murine B7-H3 proteins (Sino Biological Inc. Beijing) at room temperature overnight. The coating solution was discarded, and the wells were blocked for 0.5 hours with skimmed milk dissolved in phosphate buffered saline (PBS) and washed with PBS containing 0.05% Tween-20. 50 μL of purified HRP-labeled B7-H3 monoclonal antibodies was added to each well and incubated at room temperature for 1 hour. The cells were washed five times with PBS containing 0.05% Tween-20, 100 μL of TMB was added to each well, and color development was performed at room temperature for 5 min. 50 μL of 2N H₂SO₄ was added to each well to stop the color development reaction. The values at 450 nm were measured by a microplate reader. The results were imported into Graph Prism to calculate EC₅₀ values.

[9] = target: T5, Cynomolgus monkey B7-H3 protein (Sino Biological Inc. Beijing) (Cynomolgus monkey); assay: ELISA, plate coated with 0.1 µg/mL Cynomolgus monkey B7-H3, HRP-labeled antibody, OD 450/620 nm
T5 construct: Bought protein coated on ELISA plates; also called monkey B7-H3 antigen
Description: as §2, §3

Kd [1] | Kd [2] | Kd [3] | Kd [4] | Kd [5] | Kd [6] | EC50 [7] | Kd (His-labeled human B7-H3) | koff (His-labeled human B7-H3) | kon (His-labeled human B7-H3) | binding result [8] | EC50 (read off the curve) [9] | Binder
1.25 nM | 0.835 nM | 0.227 nM | 5.05 nM | 0.273 nM | 2.6 nM | 6.69 ng/mL | 0.015 nM | 3.09e-06 s⁻¹ | 207000 M⁻¹ s⁻¹ | no binding (tested: 10 µg/mL) | ~6 ng/mL | murine monoclonal antibody mAb152 (antibody, V domains shown) VH: QVQLQQPGAELVRPGASVKLSCKASGYTFTAYWMNWVKQRPDQGLEWIGRIDPYDSETRYNQNFRDKARLTVDKSSSTAYMQLSSLTSEDSAVFYCARGVRIFDYWGQGTTLTVSS VL: DIQMTQSPASLAASVGETVTITCRTSENIDYTLAWYQQKPGKSPQLLIYNANTLEDGVPSRFSGSGSGTHFSLKINSMQPEDTATYFCKQAYDVPRTFGGGTKLEIK
2.35 nM | 1.2 nM | 0.204 nM | 5.11 nM | 0.239 nM | 3.24 nM | 6.16 ng/mL | < 0.001 nM | < 1e-07 s⁻¹ | 220000 M⁻¹ s⁻¹ | no binding (tested: 10 µg/mL) | ~5 ng/mL | murine monoclonal antibody mAb272 (antibody, V domains shown) VH: QVQLQQPGAELVRPGASVKLSCKASGYTFTAYWMNWVKQRPDQGLEWIGRIDPYDSETRYNQNFRDKARLTVDKSSSTAYMQLSSLTSEDSAVFYCARGVRIFDYWGQGTTLTVSS VL: DIQMTQSPASLAASVGETVTITCRTSENIDYTLAWYQQKPGKSPQLLIYNANTLEDGVPSRFSGSGSGTLFSLKINNMQPEDTATYFCKQAYDVPRTFGGGTKLEIK
